Test [1] addresses wt-EGFR, FLAG-tagged full-length human EGFR on BaF/3 cells (human) (UniProt P00533). Nature of the test: FACS on wtEGFR-BaF/3 cells, median fluorescence against mock preincubation.
The target is the same in test [2]. Nature of the test: FACS on wtEGFR-BaF/3 cells, 10 µg/ml antibody.
Test [3] has as its target EGFR 273-621 C287R, yeast surface displayed (yeast; human). As to the kind of experiment: titration on yeast displaying EGFR 273-621 C287R, flow cytometry, three data sets.
For test [4], the target named is EGFR 273-621 E293K, yeast surface displayed (yeast; human). Nature of the test: titration on yeast surface, flow cytometry.
In test [5] the target is wild-type EGFR 273-621, yeast surface displayed (Example 3) (yeast; human). As to the kind of experiment: titration on yeast displaying EGFR 273-621, flow cytometry, three data sets.
For test [6] the target is unchanged. As to the kind of experiment: titration on yeast surface, flow cytometry, global fit of three data sets.
In test [7] the target is EGFR 273-621 C287R, yeast surface displayed (yeast; human). The test is described as above.
Test [8] shares this target. Nature of the test: from the titrations on yeast surface.
Test [9] addresses EGFR 273-621 E293K, yeast surface displayed (yeast; human). As to the kind of experiment: from the titrations on yeast surface.
A further test addresses monoclonal antibody 806. As to the kind of experiment: competition ELISA: peptide in solution against mAb […] binding to plate-coated 1-501 EGFR fragment.

Some results are limits rather than exact numbers.

monoclonal antibody 806, sequence (VH): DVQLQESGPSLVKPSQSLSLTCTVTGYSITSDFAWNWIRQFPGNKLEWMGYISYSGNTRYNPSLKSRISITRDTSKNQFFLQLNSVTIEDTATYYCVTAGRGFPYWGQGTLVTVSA
monoclonal antibody 806, sequence (VL): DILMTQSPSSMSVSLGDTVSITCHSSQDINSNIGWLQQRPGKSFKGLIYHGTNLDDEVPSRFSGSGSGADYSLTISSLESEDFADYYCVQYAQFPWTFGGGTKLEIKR

In the case of monoclonal antibody 528, in [1], the change (%) in antibody reactivity after preincubation with EGF was -23% and the change (%) in antibody reactivity after preincubation with mAb[…] is -3%. Further, the median fluorescence after mock preincubation in [2] turned out to be 112.
Consider monoclonal antibody 806, for which the change (%) in antibody reactivity after preincubation with EGF in [1] was -48%. The change (%) in antibody reactivity after preincubation with mAb[…] in test [1] came out at 163%. Besides, the figures for the EC50 (read off the curve) in test [3] and in test [5] were 100 nM and 2 nM, respectively. Moreover, the equilibrium dissociation constant (Kd) in test [4] was more than 30000 nM; in test [6] it was 2.13 nM; in [7], 127 nM. Further, in [2], the median fluorescence after mock preincubation is 7. In addition, the values for the ΔΔG compared to wild-type in [8] and in [9] were 2.4 kcal/mol and 5.7 kcal/mol, respectively.
CGADSYEMEEDGVRKC [287-302 EGFR peptide (287…302)]: the IC50 (read off the curve) with monoclonal antibody 806 was 3 µg/mL.
